Assay results as given in patent publication US20140221281A1 (Sanofi, published 2014).
*1 amine or outer side, *2 acyl side, *3 side chain or, on linkers, in order; H or OH if unused. Where no end group is shown, it is not given here. Side-chain parts run from the residue outwards. [ ]: non-standard residue; d: D form. The star is where a group is joined. γGlu = O=C(O)[C@H](CCC(=O)[*:2])N[*:1]; Stearoyl = CCCCCCCCCCCCCCCCCC(=O)*; Palmitoyl = CCCCCCCCCCCCCCCC(=O)*; αMeOrn = C[C@](N)(CCCN)C(=O)O; αMeK = C[C@](N)(CCCCN)C(=O)O; Aib = CC(C)(N)C(=O)O

Experiments:
Assay in all cases: cell-based or functional assay
[1] = target: human GLP-1 receptor (human, UniProt P43220 24-463)
[2] = target: T1, human GIP receptor (human, UniProt P48546 22-466)
T1 sequence (looked up): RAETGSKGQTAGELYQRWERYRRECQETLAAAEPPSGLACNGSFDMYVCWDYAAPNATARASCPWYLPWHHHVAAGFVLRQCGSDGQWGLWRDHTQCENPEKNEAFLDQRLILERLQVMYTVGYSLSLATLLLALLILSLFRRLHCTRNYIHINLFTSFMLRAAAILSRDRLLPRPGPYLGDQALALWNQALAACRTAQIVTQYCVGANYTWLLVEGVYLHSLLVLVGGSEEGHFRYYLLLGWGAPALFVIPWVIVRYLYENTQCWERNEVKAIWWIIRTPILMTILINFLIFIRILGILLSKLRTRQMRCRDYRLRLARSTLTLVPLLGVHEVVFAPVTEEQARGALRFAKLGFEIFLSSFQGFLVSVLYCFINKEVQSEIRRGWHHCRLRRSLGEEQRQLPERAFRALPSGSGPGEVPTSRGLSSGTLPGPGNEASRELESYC

[3] = target: human glucagon receptor (human, UniProt P47871 26-477)
Sequence of human glucagon receptor (P47871 26-477): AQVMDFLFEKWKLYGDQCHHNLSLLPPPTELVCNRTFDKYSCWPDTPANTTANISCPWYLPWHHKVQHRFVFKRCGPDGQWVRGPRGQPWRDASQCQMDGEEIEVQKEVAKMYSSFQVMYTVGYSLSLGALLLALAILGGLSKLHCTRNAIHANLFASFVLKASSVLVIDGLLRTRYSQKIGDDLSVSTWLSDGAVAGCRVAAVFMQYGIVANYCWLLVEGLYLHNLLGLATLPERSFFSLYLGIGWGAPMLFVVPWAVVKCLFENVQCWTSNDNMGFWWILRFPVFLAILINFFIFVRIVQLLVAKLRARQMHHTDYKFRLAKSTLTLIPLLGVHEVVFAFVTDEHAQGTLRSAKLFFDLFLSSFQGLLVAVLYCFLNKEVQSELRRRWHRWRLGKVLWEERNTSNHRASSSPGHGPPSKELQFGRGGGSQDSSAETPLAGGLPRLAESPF

Row | Binder | EC50 hGLP-1 R [pM] (cAMP formation) [1] | EC50 hGIP R [pM] (cAMP formation) [2] | EC50 hGLUC R [pM] (cAMP formation) [3]
1 | Y[Aib]EGTFTSDLSIQK([γGlu-Palmitoyl])EERAA[αMeK]EFIEWLKAGGPSSGAPPPS-NH2 (N-terminus assumed; SMILES CCCCCCCCCCCCCCCC(=O)N[C@@H](CCC(=O)NCCCC[C@H](NC(=O)[C@H](CCC(N)=O)NC(=O)[C@@H](NC(=O)[C@H](CO)NC(=O)[C@H](CC(C)C)NC(=O)[C@H](CC(=O)O)NC(=O)[C@H](CO)NC(=O)[C@@H](NC(=O)[C@H](Cc1ccccc1)NC(=O)[C@@H](NC(=O)CNC(=O)[C@H](CCC(=O)O)NC(=O)C(C)(C)NC(=O)[C@@H](N)Cc1ccc(O)cc1)[C@@H](C)O)[C@@H](C)O)[C@@H](C)CC)C(=O)N[C@@H](CCC(=O)O)C(=O)N[C@@H](CCC(=O)O)C(=O)N[C@@H](CCCNC(=N)N)C(=O)N[C@@H](C)C(=O)N[C@@H](C)C(=O)N[C@@](C)(CCCCN)C(=O)N[C@@H](CCC(=O)O)C(=O)N[C@@H](Cc1ccccc1)C(=O)N[C@H](C(=O)N[C@@H](CCC(=O)O)C(=O)N[C@@H](Cc1c[nH]c2ccccc12)C(=O)N[C@@H](CC(C)C)C(=O)N[C@@H](CCCCN)C(=O)N[C@@H](C)C(=O)NCC(=O)NCC(=O)N1CCC[C@H]1C(=O)N[C@@H](CO)C(=O)N[C@@H](CO)C(=O)NCC(=O)N[C@@H](C)C(=O)N1CCC[C@H]1C(=O)N1CCC[C@H]1C(=O)N1CCC[C@H]1C(=O)N[C@@H](CO)C(N)=O)[C@@H](C)CC)C(=O)O) [SEQ ID NO: 16] | 4.1 | 2.5 | 19800
2 | Y[Aib]QGTFTSDLSIQK([γGlu-Stearoyl])DEQRA[αMeOrn]EFIEWLKAGGPSSGAPPPS-NH2 (N-terminus assumed; SMILES CCCCCCCCCCCCCCCCCC(=O)N[C@@H](CCC(=O)NCCCC[C@H](NC(=O)[C@H](CCC(N)=O)NC(=O)[C@@H](NC(=O)[C@H](CO)NC(=O)[C@H](CC(C)C)NC(=O)[C@H](CC(=O)O)NC(=O)[C@H](CO)NC(=O)[C@@H](NC(=O)[C@H](Cc1ccccc1)NC(=O)[C@@H](NC(=O)CNC(=O)[C@H](CCC(N)=O)NC(=O)C(C)(C)NC(=O)[C@@H](N)Cc1ccc(O)cc1)[C@@H](C)O)[C@@H](C)O)[C@@H](C)CC)C(=O)N[C@@H](CC(=O)O)C(=O)N[C@@H](CCC(=O)O)C(=O)N[C@@H](CCC(N)=O)C(=O)N[C@@H](CCCNC(=N)N)C(=O)N[C@@H](C)C(=O)N[C@@](C)(CCCN)C(=O)N[C@@H](CCC(=O)O)C(=O)N[C@@H](Cc1ccccc1)C(=O)N[C@H](C(=O)N[C@@H](CCC(=O)O)C(=O)N[C@@H](Cc1c[nH]c2ccccc12)C(=O)N[C@@H](CC(C)C)C(=O)N[C@@H](CCCCN)C(=O)N[C@@H](C)C(=O)NCC(=O)NCC(=O)N1CCC[C@H]1C(=O)N[C@@H](CO)C(=O)N[C@@H](CO)C(=O)NCC(=O)N[C@@H](C)C(=O)N1CCC[C@H]1C(=O)N1CCC[C@H]1C(=O)N1CCC[C@H]1C(=O)N[C@@H](CO)C(N)=O)[C@@H](C)CC)C(=O)O) [SEQ ID NO: 15] | 16.1 | 8.9 | 4
